The data set concerns the molecule itself. In words: negative-stain TEM + turbidity + circular dichroism + rheology; Z23 alone (no MWCNTs) in PBS, assembly triggered by adding 10x PBS to the aqueous peptide solution; room temperature (rheology 1 wt% in PBS at 25 °C); turbidity at 313 nm. For orientation: Circular dichroism is the unequal absorption of left and right circularly polarised light.

B1: cationic amphiphilic self-assembling peptide (SAP) Z23 (peptide)
peptide: Ac-KFKFQFKFK-NH2
notes: Designed self-assembling peptide; forms nanofibers and a hydrogel in PBS; source: synthetic peptide; bought: Shanghai Top-peptide Biotechnology Co. Ltd. (purity > 95%)
For B1, the binding result was “binds”.

The values are drawn from paper PMC10934782, “Electrochemical Sensors Based on Self-Assembling Peptide/Carbon Nanotube Nanocomposites for Sensitive Detection of Bisphenol A” (Sensors (Basel, Switzerland), 2024).
